Measurements from the supplement of paper PMC9170038.

Test system: MS2 coat protein
Assay: apparent KD of MS2 coat protein; designed switch direction (-1 OFF switch, 1 ON switch): 1; higher = weaker reporter binding
How it was run: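 The reported apparent KD is a per-design median over clusters, from curve fits of normalised cluster fluorescence. Protein titrations used SNAP-549-labelled MS2 coat protein, doubled from 0.7 or 1.5 nM to 3 µM, in Tris-HCl pH 7.5 buffer with KCl, MgCl2, BSA, DTT, tRNA and Tween-20, with no input, 200 uM small-molecule ligand, or an oligonucleotide input. The RNA switches were transcribed on Illumina chips by stalled E. coli RNA polymerase.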

[1] = input ligand: microRNA oligo, concentration not stated
[2] = Eterna round: R95, input ligand: microRNA oligo, concentration not stated
[3] = Eterna round: R95, input ligand: FMN 200 uM
[4] = Eterna round: R95, input ligand: none

| Sequence | apparent KD of MS2 coat protein (input ligand: FMN 200 uM) [µM] | apparent KD of MS2 coat protein [1] [µM] | apparent KD of MS2 coat protein (input ligand: none) [µM] | apparent KD of MS2 coat protein [2] [µM] | apparent KD of MS2 coat protein [3] [µM] | apparent KD of MS2 coat protein [4] [µM] |
| --- | --- | --- | --- | --- | --- | --- |
| GUGGUCAGACAUGAGGAUCACCCAUGUGGAAUAAAUAAGGCAUAGGAUAUAAAAUAUAGGAUAUAUUAGAAGGAUGGGUUGGUG (Eterna round: R96, puzzle: Same State NG 3) | 0.145 | 0.0837 | 0.144 | – | – | – |
| UUCAACUGAGGAGGAUAUGCAGAGGAUCACCCUGUAGAAGGCCUCGAAAGGAGGAUAUGCAGAGGAUCACCCUGUAGAAGGCCU [pwkr ssNG DX.19] (Eterna round: R96, puzzle: Same State NG 1) | 0.417 | 0.148 | 0.132 | – | – | – |
| UGGUAACAUGAGGAUCACCCAUGUCAAGAGAAUCAAGGAUAUGGUAAGUAAUAAGAGAAUCUAGAAGGUGAAGUUG [Altered State 1-25 - Jieux - Same State 1] (puzzle: Same State 1) | – | – | – | 0.0733 | – | – |
| GAAGACAUAGUUCAGGAUAUAGGAAUAGUCACAUGAGGAUCACCCAUGUGCAUUUAUAUGCGCACUUAGAAGGGAGGUAGUUAUC [SameState2 Malc#23] (Eterna round: R96, puzzle: Same State 2) | 0.0394 | 0.0294 | 0.0394 | – | – | – |
| AUAAUACAUGAGGAUCACCCAUGUAAUUUAACUUGUAAGAUCAAGGAUAUCAGCUCGUUUAGAGCUGAGAAGGUGAUCACAUGU [SSNG3/20-A3] (Eterna round: R96, puzzle: Same State NG 3) | – | 0.0602 | – | – | – | – |
| GGAGCAGGGUGAGGAUAUGUAAAAUUCGAAAGGACAGAAGGCACUUAACCAACAUGAGGAUCACCCAUGUAGGCGACGGCACCA [Eternabot solution 8] (Eterna round: R96, puzzle: Same State NG 1) | – | 0.0199 | – | – | – | – |
| CGUCCGGCCUGUGCUGGCCGGAAGCAUGUACAUGAGGAUCACCCAUGUUCAUGUGCUGGCUUUUUGCUCGUCUUGUG [salish99_mir208a_011] (puzzle: Sensor for hsa-mir-208a) | – | – | – | 0.0111 | 0.0139 | 0.014 |
| UAGGAACAUGAGGAUCACCCAUGUACCUCAUAUGGAGAAACACAGGAUAUACUUAGCGAAAGAGAGUAGAAGGGUGAAGAGAGG [Default title] (Eterna round: R96, puzzle: Same State NG 3) | 0.0194 | 0.0308 | 0.0326 | – | – | – |
| AUUAAUAAUCGAGGAUAUCACGUCGAAUAGACGUGAGAAGGCGAUCAUAACAUGAGGAUCACCCAUGUAUUACAUGAAGUUAAU [SSNG1/4-B1] (Eterna round: R96, puzzle: Same State NG 1) | – | 0.02 | – | – | – | – |
| GUGGUCAGACAUGAGGAUCACCCAUGUGGAAUAAAUAAGGGAGAGGAUAUAAAAUAUAGGAUAUAUUAGAAGGCUCGGUUGGUG (Eterna round: R96, puzzle: Same State NG 3) | 0.0957 | 0.0827 | 0.0854 | – | – | – |
| GAAGGAUGAGCGUAGGAUAUAGGAGGAGUGACAUGAGGAUCACCCAUGUGGUAUGAGGGAGGAUUCUAGAAGGACGCGGUAGAAG [JR_SS2_Sub065] (puzzle: Same State 2) | – | – | – | 0.15 | 0.0899 | 0.161 |
| GCUCGUGGUAUUGUCUACAUGAGGAUCACCCAUGUAGGUGCGGAGGAUAUCUACGUGUCUCAUGUAGAGAAGGUCGUCACGAGC [SameState NG3 #99] (Eterna round: R96, puzzle: Same State NG 3) | 0.0612 | 0.174 | 0.0387 | – | – | – |
| CUGAGCAGUCAAGGAUAUCACGUCGAUUAGACGUGAGAAGGUGAUUAAUACAUGAGGAUCACCCAUGUAAUACAUGAAGCUCAG [SSNG1/11-A2] (Eterna round: R96, puzzle: Same State NG 1) | 0.0138 | 0.0384 | 0.0419 | – | – | – |
| AGAGAAGAAGCUGAGGAUAUCGUAAGGAGGACAUGAGGAUCACCCAUGUGUGUGGAAUUGGAGGACGAGAAGGCAGAGGAGUGGG [JR_SS2_Sub056] (puzzle: Same State 2) | – | – | – | 0.0283 | 0.0251 | 0.0278 |
| AACAAUUAACAUGAGGAUCACCCAUGUAUUACUUCGUGUUUUUGCUCGUCUUAUGUUAGGUUCGAUAGAGCUUAACA [Improved] (puzzle: Sensor for hsa-mir-208a version 2) | – | – | – | 0.0126 | 0.0424 | 0.0449 |
| UGUUGUAUUACAGGAUAUCUAUGAUUUUUUUUUAGAGAAGGGUAUUCACAUGAGGAUCACCCAUGUAUAUACGAGGAAGUUGUG [JMF's solution 65] (Eterna round: R96, puzzle: Same State NG 1) | – | 0.0398 | – | – | – | – |
| GUGGCCCAGGCACAGGAUAUGUUUCUCGUAACAUGAGGAUCACCCAUGUGCCUAUGAGAUUGUUUGCAGAAGGGUGCACGCCACG [JL Atiinbe mod 03] (Eterna round: R96, puzzle: Same State 2) | 0.0183 | 0.146 | 0.29 | – | – | – |
